For this series, the target named is T1, ParB (Mycobacterium tuberculosis H37Rv) (UniProt P9WIJ9).
T1 sequence: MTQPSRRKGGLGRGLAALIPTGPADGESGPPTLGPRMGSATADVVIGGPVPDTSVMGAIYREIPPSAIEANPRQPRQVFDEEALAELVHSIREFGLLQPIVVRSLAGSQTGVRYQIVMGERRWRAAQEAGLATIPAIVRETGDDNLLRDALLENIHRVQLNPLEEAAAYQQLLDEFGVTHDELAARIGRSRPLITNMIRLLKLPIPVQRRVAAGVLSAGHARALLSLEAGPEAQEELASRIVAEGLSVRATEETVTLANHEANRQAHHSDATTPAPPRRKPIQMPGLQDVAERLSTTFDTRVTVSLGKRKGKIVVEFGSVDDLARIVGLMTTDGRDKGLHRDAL
Nature of the series: EMSA. In general terms: In EMSA bound probe runs differently from free probe, usually more slowly.

Regarding “GCGAGTGGAGGGACGGCGTGAGTGCTCCGTGGGGCCCGGTGGCCGCTGGACCGTCCGCGCTCGTAAGGTCGGGCCAGGCTTCAACTATCGAACCATTCCAGCGGGAAATGACACCACCGACACCGACGCCTGAGGCCGCGCACAATCCGACGATGAATGTTTCACGTGAAACATCGACAGAATTCGACACCCCCATCGGCGCTGCAGCAGAACGTGCGATGCG (double strand) [parS probe]”, the binding entry is listed as “binds”.

Values taken from article PMC4373775.
